# T1: CD20 protein on CD20 protein-positive lymphoma cell Raji (ATCC CCL-86) (UniProt P11836 1-297, limits assumed)
# T1 construct: whole, on cells; The target is native CD20 on Raji cells; also called CD20 antigen
# T1 sequence (looked up): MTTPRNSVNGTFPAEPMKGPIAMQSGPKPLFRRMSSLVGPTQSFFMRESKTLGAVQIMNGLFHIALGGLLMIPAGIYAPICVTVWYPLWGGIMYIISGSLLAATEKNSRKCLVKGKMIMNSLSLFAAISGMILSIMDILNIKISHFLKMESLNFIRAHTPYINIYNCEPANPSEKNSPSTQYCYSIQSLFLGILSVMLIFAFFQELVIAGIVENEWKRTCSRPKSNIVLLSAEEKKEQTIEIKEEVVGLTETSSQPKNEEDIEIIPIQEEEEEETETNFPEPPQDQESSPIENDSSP
# Biological target: T1, CD20 protein on CD20 protein-positive …
# Assay: flow cytometry, fluorescently labeled antibody on Raji cells
# Procedure: Briefly, after diluted in equal concentration proportions, the purified fluorescently labeled antibody was incubated with the CD20 protein-positive lymphoma cell Raji (ATCC CCL-86) for 45 minutes on ice, and then washed twice and subjected to flow cytometry. The binding activity of the antibody was further evaluated based on the change in fluorescence intensity of the antibody after binding to the cells at different antibody concentrations.
row,Binder,binding result
1,"novel CD20 antibody H102YH (antibody, human IgG1, V domains shown) VH: QVQLQQPGAELVKPGASVKMSCKASGYTFTSYNMHWVKQTPGRGLEWIGAIYPGNGDTSYNQKFKGKATLTADKSSSTAYMQLSSLTSEDSAVYYCARSTYHGGDWYFNVWGAGTTVTVSA VL: QIVLSQSPAILSASPGEKVTMTCRASSSVSYIHWFQQKPGSSPKPWIYATSNLASGVPVRFSGSGSGTSYSLTISRVEAEDAATYYCQQWTSNPPTFGGGTKLEIKV",binds
2,"novel CD20 antibody H102YL (antibody, human IgG1, V domains shown) VH: QVQLQQPGAELVKPGASVKMSCKASGYTFTSYNMHWVKQTPGRGLEWIGAIYPGNGDTSYNQKFKGKATLTADKSSSTAYMQLSSLTSEDSAVYYCARSTYLGGDWYFNVWGAGTTVTVSA VL: QIVLSQSPAILSASPGEKVTMTCRASSSVSYIHWFQQKPGSSPKPWIYATSNLASGVPVRFSGSGSGTSYSLTISRVEAEDAATYYCQQWTSNPPTFGGGTKLEIKV",binds
3,"novel CD20 antibody H102YN (antibody, human IgG1, V domains shown) VH: QVQLQQPGAELVKPGASVKMSCKASGYTFTSYNMHWVKQTPGRGLEWIGAIYPGNGDTSYNQKFKGKATLTADKSSSTAYMQLSSLTSEDSAVYYCARSTYNGGDWYFNVWGAGTTVTVSA VL: QIVLSQSPAILSASPGEKVTMTCRASSSVSYIHWFQQKPGSSPKPWIYATSNLASGVPVRFSGSGSGTSYSLTISRVEAEDAATYYCQQWTSNPPTFGGGTKLEIKV",binds
4,"novel CD20 antibody H102YR (antibody, human IgG1, V domains shown) VH: QVQLQQPGAELVKPGASVKMSCKASGYTFTSYNMHWVKQTPGRGLEWIGAIYPGNGDTSYNQKFKGKATLTADKSSSTAYMQLSSLTSEDSAVYYCARSTYRGGDWYFNVWGAGTTVTVSA VL: QIVLSQSPAILSASPGEKVTMTCRASSSVSYIHWFQQKPGSSPKPWIYATSNLASGVPVRFSGSGSGTSYSLTISRVEAEDAATYYCQQWTSNPPTFGGGTKLEIKV",binds

# More lines, now with the values ahead:
row,binding result,Binder
1,binds,"novel CD20 antibody H102YS (antibody, human IgG1, V domains shown) VH: QVQLQQPGAELVKPGASVKMSCKASGYTFTSYNMHWVKQTPGRGLEWIGAIYPGNGDTSYNQKFKGKATLTADKSSSTAYMQLSSLTSEDSAVYYCARSTYSGGDWYFNVWGAGTTVTVSA VL: QIVLSQSPAILSASPGEKVTMTCRASSSVSYIHWFQQKPGSSPKPWIYATSNLASGVPVRFSGSGSGTSYSLTISRVEAEDAATYYCQQWTSNPPTFGGGTKLEIKV"
2,binds,"novel CD20 antibody H102YM (antibody, human IgG1, V domains shown) VH: QVQLQQPGAELVKPGASVKMSCKASGYTFTSYNMHWVKQTPGRGLEWIGAIYPGNGDTSYNQKFKGKATLTADKSSSTAYMQLSSLTSEDSAVYYCARSTYMGGDWYFNVWGAGTTVTVSA VL: QIVLSQSPAILSASPGEKVTMTCRASSSVSYIHWFQQKPGSSPKPWIYATSNLASGVPVRFSGSGSGTSYSLTISRVEAEDAATYYCQQWTSNPPTFGGGTKLEIKV"
3,binds,"novel CD20 antibody H102YQ (antibody, human IgG1, V domains shown) VH: QVQLQQPGAELVKPGASVKMSCKASGYTFTSYNMHWVKQTPGRGLEWIGAIYPGNGDTSYNQKFKGKATLTADKSSSTAYMQLSSLTSEDSAVYYCARSTYQGGDWYFNVWGAGTTVTVSA VL: QIVLSQSPAILSASPGEKVTMTCRASSSVSYIHWFQQKPGSSPKPWIYATSNLASGVPVRFSGSGSGTSYSLTISRVEAEDAATYYCQQWTSNPPTFGGGTKLEIKV"
4,binds,"novel CD20 antibody H102YV (antibody, human IgG1, V domains shown) VH: QVQLQQPGAELVKPGASVKMSCKASGYTFTSYNMHWVKQTPGRGLEWIGAIYPGNGDTSYNQKFKGKATLTADKSSSTAYMQLSSLTSEDSAVYYCARSTYVGGDWYFNVWGAGTTVTVSA VL: QIVLSQSPAILSASPGEKVTMTCRASSSVSYIHWFQQKPGSSPKPWIYATSNLASGVPVRFSGSGSGTSYSLTISRVEAEDAATYYCQQWTSNPPTFGGGTKLEIKV"

# Reference: US20190135934A1 (published 2019)
